How the values were obtained:
[1] = tested on: T1, Myc-tagged GID-2 construct of Xaxin (amino acid residues 320-429)
T1 sequence: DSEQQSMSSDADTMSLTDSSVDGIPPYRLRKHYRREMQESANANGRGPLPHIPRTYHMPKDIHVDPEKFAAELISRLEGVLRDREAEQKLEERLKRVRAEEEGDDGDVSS

[2] = tested on: T2, Myc-tagged GID-3 construct of Xaxin (amino acid residues 320-375)
T2 sequence: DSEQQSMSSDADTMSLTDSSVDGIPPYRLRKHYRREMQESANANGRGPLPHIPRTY

[3] = tested on: T3, Myc-tagged GID-4 construct of Xaxin (amino acid residues 350-429)
T3 sequence: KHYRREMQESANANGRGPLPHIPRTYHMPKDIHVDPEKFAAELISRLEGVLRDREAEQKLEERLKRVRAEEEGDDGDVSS

[4] = tested on: T4, Myc-tagged GID-5 construct of Xaxin (amino acid residues 380-429)
T4 sequence: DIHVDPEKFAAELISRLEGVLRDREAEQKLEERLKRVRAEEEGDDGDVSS

[5] = tested on: T5, Myc-tagged GID-6 construct of Xaxin (amino acid residues 380-404)
T5 sequence: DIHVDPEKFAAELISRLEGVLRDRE

[6] = tested on: T6, GID-2/his fusion protein (Xaxin amino acid residues 320-429 with His-epitope tag, from E. coli)
T6 sequence: T1 sequence

Substance	GSK-3 beta mediated tau phosphorylation in Xenopus oocytes [1]	GSK-3 beta mediated tau phosphorylation in Xenopus oocytes [2]	GSK-3 beta mediated tau phosphorylation in Xenopus oocytes [3]	GSK-3 beta mediated tau phosphorylation in Xenopus oocytes [4]	GSK-3 beta mediated tau phosphorylation in Xenopus oocytes [5]	GSK-3 beta mediated phosphorylation of the GS-2 peptide derived from glycogen synthase, in vitro [6]	phosphorylation of tau by GSK-3 beta, in vitro [6]
GSK-3 beta (glycogen synthase kinase-3 beta) expressed in Xenopus oocytes	bound GSK-3 beta and inhibited GSK-3 beta mediated tau phosphorylation	did not bind GSK-3 beta and had no effect on GSK-3 beta activity	bound GSK-3 beta and inhibited GSK-3 beta mediated tau phosphorylation	bound GSK-3 beta and inhibited GSK-3 beta mediated tau phosphorylation	bound GSK-3 beta and inhibited GSK-3 beta mediated tau phosphorylation	–	–
Recombinantly-produced GSK-3 beta protein (New England Biolabs)	–	–	–	–	–	GID-2/his exhibited no significant effect on GSK-3 beta mediated phosphorylation of the GS-2 peptide	GID-2/his also did not inhibit phosphorylation of tau by GSK-3 beta, even when GID-2/his was present at a 200-fold molar excess
